According to the supplement of paper PMC10567573:

B1: FAM107A (parent)
chain: HRRGLGVDSKPELQRVLEHRRRNQ
B2: SMG5 (parent)
chain: QEKLQVLMAEGLLPAVKVFLDWLR

Variants of: B1
Assay: protein stability index of a GFP-peptide fusion (GPS, HEK-293T) (PSI 1-6); higher = more stable
Conditions: c terminus: a fixed tail appended
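Note: lentivirally expressed fusions sorted by FACS into six bins by GFP to DsRed ratio, PSI derived from sequencing read proportions per bin multiplied by bin number.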

Protein stability index of substitutions, site by site:
E12: T 2.98; L 4.02; A 4.3; R 2.99; K 4.18; W 3.5; C 4.11; D 2.18
P11: R 4.13; A 4.05; W 3.25; C 4.13; K 3.82; Y 2.59; H 4.35; Q 3.73; M 3.99; D 4.29; T 3.51; V 3.95; I 3.42; G 4.55
V7: H 2.61; D 4.93; Q 4.95; Y 4.23; A 3.74; C 3.07; M 3.62; T 4.79; R 4.39; F 3.42; S 4.88; K 4.33
H1: V 4.43; A 3.52; S 4.16; C 3.42; K 4.53; L 4.8; W 3.11; E 4.92; P 2; N 4.5; T 4.04; R 4.55; Y 4.12
L13: D 5.59; A 4.31; G 4.94; E 5.77; K 4.97; F 4.75; M 4; H 4.93; I 4.71; C 3.67
L5: P 4.16; Y 4.66; K 4.04; A 4; M 4.52; V 3.46; I 3.15; R 5.2; H 4.21; F 4.13; E 4.34; Q 5.16; T 4.82
K10: T 4.38; G 4.5; S 5.01; N 4.48; M 4.27; C 3.82; E 4.55; A 4.56; L 2.36; W 2.6; D 4.89; Q 4.92; H 4.18
S9: L 4.15; A 2.99; R 4.8; P 4.38; M 4.14; V 3.98; G 4.41; K 4.76; H 4.46; E 4.39; I 4.66; W 3.55; D 4.67; F 3.52; Y 4.16
G6: P 4.63; A 1.82; Y 3.5; K 2.56; D 2.51; T 2.78; Q 3.18; H 3.22; M 4.25; F 3.06; I 3.68
G4: R 4.2; Y 4.32; V 4.87; P 4.8; Q 4.33; F 4.72; D 4.49; T 3.35; K 5.72; A 3.35; C 4.02; E 5.08; N 4.42; I 4.21; H 4.3; S 3.63
R3: E 4.2; K 4.52; Q 3.65; W 4.22; T 4.92; V 4.74; I 4.29; S 4.91; H 4.95; G 5.11; C 3.97; A 4.9; P 4.55; N 4.25; F 3.9; L 4.14; M 3.9
D8: K 3.79; C 3.08; M 3.18; S 2.41; I 3.74; N 3; G 3.42; P 2.54; A 2.92; E 4.59; V 4.07; Y 2.41; F 2.23; R 4.26; T 4.41; H 3.74; Q 3.34
R2: P 4.96; D 5.11; K 3.05; I 3.4; Y 5.39; N 4.2; V 5; L 3.91; G 4.84; T 4.95; Q 4.58; H 4.05; F 4.86; C 4.78; E 4.7; W 3.71

Variants of: B2
Assay: as above
Conditions: c terminus: a fixed tail appended

Protein stability index: each site, then its substitutions
F19: K 2.35; N 1.53; C 2.4; M 2.48; Q 2.13; I 2.39; H 1.31; W 1.89; R 2.12; D 2.14; L 1.9; A 2.97; Y 1.6; E 1.53; P 2.17; G 3.15; S 2.73
D21: E 1.33; F 3.72; I 2.5; K 2.54; H 3.17; C 1.68; A 2.05; P 1.65; Y 3.03; M 2.04; G 2.04; L 2.2; N 2.6; T 2.98
V16: N 1.75; T 2.46; G 1.15; Y 2.29; D 1.95; C 1.98; H 1.93; E 2.15; W 1.96; R 2.25; F 2.56; L 1.39; S 2.31; I 2.16; K 2.04; Q 1.86; M 1.85; P 3.13
L23: Y 1.97; V 1.67; R 2.38; T 1.19; M 4.59; A 1.72; G 2.66; Q 1.91; D 2.75; P 2.21; W 1.7; F 2.67; H 1.27; S 2.57; I 2.39; K 1.83; C 1.08; E 1.26; N 2.58
R24: W 1.83; G 1.43; L 2.96; H 2.6; Q 1.75; T 1.88; N 1.92; V 1.67; F 2.23; P 3.34; A 1.21; Y 1.91; C 1.59; S 2.62; E 2.5; K 2.45; M 1.89; I 1.93; D 2
K17: A 2.99; E 1.72; W 2.18; H 1.71; P 1.2; M 1.79; I 2.31; L 2.03; Q 1.44; Y 2.78; S 1.82; D 1.27; N 2.26; V 1.52; T 2.05; R 2.07; C 1.86; F 1.91; G 1.91
W22: C 1.99; I 1.96; M 1.57; H 2.73; K 2.53; V 1.62; G 2.63; Y 2.13; S 2.17; R 1.95; N 2.28; T 1.91; L 2.47; F 2.09; P 2.26; E 2.05; A 2.8; Q 2.38
L20: R 1.58; T 3.12; I 2.02; M 2.64; D 1.59; A 3.26; S 2.73; Q 2.02; P 1.76; K 1.41; F 2.52; C 3.11; W 2.29; G 1.77; Y 1.54; E 1.7; V 1.4
V18: P 1.91; C 2.37; A 2.19; I 2.82; D 2.44; Q 3.07; R 3.86; L 1.99; E 2.37; S 3.52; H 3.52; Y 3.16; W 1.64; M 2.59; T 3.25; K 2.05; F 1.94; G 3.13
